B1: ZM6.22v2 recognition site (dsDNA)
DNA 1: ATTGCTCTCTCACATACTTTTA
DNA 2: TAAAAGTATGTGAGAGAGCAAT
B2: LIG3-4 recognition site (dsDNA)
DNA 1: ATATACCTCACACGTACGCGTA
DNA 2: TACGCGTACGTGTGAGGTATAT

Legend:
Details in all cases: tags: NLS, 6xHis
[1] = molecular target: T1, ZM6.22v2(I7) (artificial); assay: cell_activity; yeast 37 C; 30 C: 0
T1 chain: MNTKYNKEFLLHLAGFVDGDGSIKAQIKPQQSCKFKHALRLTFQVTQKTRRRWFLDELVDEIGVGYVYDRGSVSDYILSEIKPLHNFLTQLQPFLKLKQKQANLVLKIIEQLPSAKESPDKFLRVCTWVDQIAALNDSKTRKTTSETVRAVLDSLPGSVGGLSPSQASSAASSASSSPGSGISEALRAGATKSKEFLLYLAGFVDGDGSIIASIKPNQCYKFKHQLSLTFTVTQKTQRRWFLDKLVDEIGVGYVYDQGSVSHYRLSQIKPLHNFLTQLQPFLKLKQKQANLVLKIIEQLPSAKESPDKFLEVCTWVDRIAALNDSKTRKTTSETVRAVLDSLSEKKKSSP
Protocol: (§1) A 3 mL culture of selective media (MP Biomedical) was inoculated with a single colony of the yeast screening strain and grown at 30° C. overnight. On the following day, a 50 ml YPD culture (MP Biomedical) was started with 2 ml of the overnight culture and grown at 30° C. overnight. On the following day, the cells were harvested by centrifugation at 4000 rpm. The cells were resuspended in 100 ml ice cold water and centrifuged again. The cells were then washed in 1.2 M sorbitol, followed by treatment with 2 ml of 10 mM Tris pH 8.0, 1 mM EDTA, 100 mM Lithium acetate, 10 mM DTT, 0.6M sorbitol for 30 minutes at 30° C. with shaking. The cells were recovered by centrifugation, washed in 40 ml 1.2M sorbitol and finally resuspended in 250 microliters of 1.2M sorbitol. 50 microliter aliquots were transferred to test tubes on ice. Up to 5 microliters of DNA (100-500 nanograms) were added. The suspension was transferred to a 0.2 cm electroporation cuvette, on ice. Electroporation was performed with a pulse charge at 1.5 kV, 200 ohms, 25 microF (pulse time of 5 milliseconds). 1 mL YPD media (MP Biomedical) was added and the cells were allowed to recover at 30° C. for 1-2 hr. The cells were centrifuged, resuspended in 100 uL 1M sorbitol and plated on selective media lacking leucine and containing 2% galactose. The resulting yeast colonies were incubated at various temperatures ranging from 22 to 37 degrees Celsius for 7-10 days. I-CreI and meganucleases derived from it have maximal activity at or above 37 degrees Celsius. Screening was performed at a range of temperatures from 22 to 37 degrees in order to observe increases in activity at lower temperatures which are relevant to certain biological systems (eg. plant cells, plant cell cultures, etc). At that time the red/white sectoring phenotype, indicative of meganuclease activity was observed. Colonies with increased white sectoring over the parental meganuclease (indicating colonies expressing a meganuclease with increased meganuclease activity), also referred to as “hits” and sometimes completely white, were isolated for further analysis.
(§2) A total of 13 ZM6.22v2 variants with increased activity were confirmed in the yeast system (as described in Example 6). Increased activity was observed across a range of temperatures: 28 degrees Celsius, 30 degrees Celsius and 37 degrees Celsius, as shown in Table 16.

[2] = molecular target: T2, ZM6.22v2 (artificial); assay: cell_activity; yeast 37 C; 30 C: 0
T2 chain: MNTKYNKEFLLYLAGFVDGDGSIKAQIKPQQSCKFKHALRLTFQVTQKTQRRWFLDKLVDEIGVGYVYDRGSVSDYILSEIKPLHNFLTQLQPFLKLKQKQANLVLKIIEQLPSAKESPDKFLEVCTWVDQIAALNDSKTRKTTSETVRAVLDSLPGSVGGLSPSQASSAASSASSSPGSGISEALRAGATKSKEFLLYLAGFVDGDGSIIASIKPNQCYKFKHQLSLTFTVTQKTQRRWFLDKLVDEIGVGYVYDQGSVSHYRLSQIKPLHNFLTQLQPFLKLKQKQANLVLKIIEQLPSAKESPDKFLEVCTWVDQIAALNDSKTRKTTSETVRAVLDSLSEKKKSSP
Protocol: as §1, §2

[3] = molecular target: T3, ZM6.22v2(I4) (artificial); assay: cell_activity; yeast 37 C; 30 C: 0
T3 chain: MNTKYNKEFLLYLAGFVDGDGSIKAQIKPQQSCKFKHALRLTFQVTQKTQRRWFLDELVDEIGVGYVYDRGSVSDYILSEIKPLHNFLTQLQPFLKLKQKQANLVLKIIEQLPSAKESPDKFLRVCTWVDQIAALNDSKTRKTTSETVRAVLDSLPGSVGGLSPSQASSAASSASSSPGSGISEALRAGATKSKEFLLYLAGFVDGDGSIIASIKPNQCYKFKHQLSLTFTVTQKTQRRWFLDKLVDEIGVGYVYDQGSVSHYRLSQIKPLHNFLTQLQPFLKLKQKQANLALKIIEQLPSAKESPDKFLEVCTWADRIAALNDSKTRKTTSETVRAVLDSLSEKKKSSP
Protocol: as §1, §2

[4] = molecular target: T4, LIG3-4(A6) (artificial); assay: cell_activity; yeast 30 C; 22 C: 0
T4 chain: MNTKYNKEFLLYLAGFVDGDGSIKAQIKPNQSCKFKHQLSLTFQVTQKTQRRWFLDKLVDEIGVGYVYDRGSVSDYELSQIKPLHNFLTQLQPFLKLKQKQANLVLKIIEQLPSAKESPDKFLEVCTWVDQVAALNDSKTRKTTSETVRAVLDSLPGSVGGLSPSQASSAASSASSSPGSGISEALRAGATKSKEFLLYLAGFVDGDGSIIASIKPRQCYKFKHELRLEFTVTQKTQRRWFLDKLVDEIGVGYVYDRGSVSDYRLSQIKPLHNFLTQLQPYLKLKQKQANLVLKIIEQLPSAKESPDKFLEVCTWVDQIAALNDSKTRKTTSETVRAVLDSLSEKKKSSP
Protocol: as §1

[5] = molecular target: T5, LIG3-4(B55) (artificial); assay: cell_activity; yeast 30 C; 22 C: 0
T5 chain: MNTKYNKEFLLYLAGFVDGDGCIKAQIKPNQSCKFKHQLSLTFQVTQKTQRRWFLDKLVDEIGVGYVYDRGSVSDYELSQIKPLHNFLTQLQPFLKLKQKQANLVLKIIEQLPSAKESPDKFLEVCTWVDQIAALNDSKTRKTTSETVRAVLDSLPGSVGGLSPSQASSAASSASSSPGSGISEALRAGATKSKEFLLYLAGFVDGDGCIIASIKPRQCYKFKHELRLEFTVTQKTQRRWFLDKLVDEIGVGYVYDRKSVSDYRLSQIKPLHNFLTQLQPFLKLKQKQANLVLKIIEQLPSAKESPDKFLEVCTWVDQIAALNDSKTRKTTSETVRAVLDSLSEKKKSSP
Protocol: as §1

| Binder | activity [1] | activity [2] | activity [3] | activity [4] | activity [5] |
| --- | --- | --- | --- | --- | --- |
| B1 | 2 score 0-4 | 1 score 0-4 | 3 score 0-4 | – | – |
| B2 | – | – | – | 3 score 0-4 | 4 score 0-4 |

Reference: patent US20140223606, “COMPOSITIONS AND METHODS COMPRISING SEQUENCES HAVING MEGANUCLEASE ACTIVITY” (PIONEER HI BRED INTERNATIONAL INC, published 2014)
